# Measurements as given in the supplement of paper PMC10567573.
# ± gives the standard deviation.
# Assay: protein stability index of a GFP-peptide fusion (GPS, HEK-293T) (PSI 1-6); higher = more stable
# [1] = treatment: DMSO, c terminus: a fixed tail appended
# [2] = treatment: MLN4924 1 uM, 8 h, c terminus: a fixed tail appended
# 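Further: 24-mer peptide tiles fused after GFP, lentivirally expressed, FACS-sorted into six equal bins by GFP/DsRed ratio, decoded by Illumina sequencing, PSI is the read-weighted mean bin number.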
Sequence,protein stability index [1],protein stability index [2],"protein stability index (treatment: DMSO, c terminus: native)","protein stability index (treatment: MLN4924 1 uM, 8 h, c terminus: native)"
LEVDHIRTIYHMFIALLILFILST [SOAT1],2.58 ± 0.39,2.43 ± 0.41,–,–
LFCAPGSWEWNELDHIMEIILGS [SERTAD3],–,–,3.56 ± 0.17,2.45 ± 0.4
LFCEVSVVQDSVNISGHTNTNTLK [SPOPL],2.76 ± 0.4,2.84 ± 0.67,–,–
LFSKWFSESGKLVTKMFQKIQDLI [TRIP13],2.98 ± 0.52,2.49 ± 0.39,–,–
LGISPSTCSFNPGVIVANMTEWKH [GLT8D2],2.59 ± 0.3,2.59 ± 0.23,–,–
LGSAGAQYEKYSFRGFPPEDLMPL [P3H4],2.87 ± 0.52,2.86 ± 0.17,–,–
LGWAQPCDVWSIGCILFEYYRGFT [CLK3],3.31 ± 0.71,2.93 ± 1.5,–,–
LHHVKTMWYPEIKHFCPRAPVILV [RHOBTB2],2.65 ± 0.58,2.58 ± 0.87,–,–
LIGFCMFVLSLVKKHYRLQFYMFG [CDS2],2.33 ± 0.61,2.47 ± 0.85,–,–
LINKMLTINPSKRITAAEALKHPW [CAMK2A],2.16 ± 0.11,2.17 ± 0.18,–,–
LIQPQDQSCWAFLPDLCLCRVFWW [FBXO39],2.88 ± 0.78,2.9 ± 0.55,–,–
LKFDMKYMNFRVKACNKAVAGEFS [FSD1],2.34 ± 0.26,2.17 ± 0.2,–,–
LKILKPSIPLERIHFDSYITCVSG [FBXO33],2.22 ± 0.41,2.23 ± 0.42,–,–
LKPESSQQPGQDALAVKAGHGYDS [ZBED1],5.12 ± 0.33,5.22 ± 0.32,–,–
LKQAKELDRERAAANEQLTRAILR [CHCHD3],3.56 ± 0.11,3.81 ± 0.2,–,–
LLCLRAVTHREGAPPLPGAESFPG [PLEKHN1],3.08 ± 0.23,3.11 ± 0.067,–,–
LLDADWSINAGSWMWLSCSSFFQQ [CRY1],2.67 ± 1.1,2.57 ± 0.22,–,–
LLEPEVADGGGAPPQGGCGGGGCD [KCNA3],5.31 ± 0.22,5.35 ± 0.11,–,–
LLESLNQQRLQGQLCDVSIRVQGR [ZBTB22],2.59 ± 0.21,2.67 ± 0.21,–,–
LLSFKRGSALEEKENKILVKETGY [TNFSF13B],3.45 ± 0.38,3.31 ± 0.37,–,–
LLSFLLLMDYIGINLATMNSCINP [EDNRA],2.58 ± 0.73,4.18 ± 0.46,–,–
LLSQKKTISFLGCAIQMFSFLFLG [OR10K2],2.5 ± 0.69,2.41 ± 0.25,–,–

Sequence,protein stability index [1],protein stability index [2],"protein stability index (treatment: DMSO, c terminus: native)","protein stability index (treatment: MLN4924 1 uM, 8 h, c terminus: native)"
LLTHRCLRDEHRCASKYGRDWERY [DHCR7],2.26 ± 0.27,2.38 ± 0.11,–,–
LLWAKFTNSDTPTSFNHMDSDKLS [TOR1AIP2],2.45 ± 0.3,2.54 ± 0.35,–,–
LNPGFQDATLSLKQTILDKEEKQR [TTC32],4.94 ± 0.15,4.98 ± 0.17,–,–
LNRATQSIERSHRIATETDQIGSE [VTI1B],5.44 ± 0.32,5.34 ± 0.11,–,–
LPAAEFHGLWDSLVYDVEVKSHLL [TRIP13],2.43 ± 0.22,2.42 ± 0.2,–,–
LPGPAFESYESMELACPAERSGHV [KLHDC2],4.41 ± 0.17,4.45 ± 0.33,–,–
LPQVAEEISGPLTSANKITLVSSG [FLOT1],3.78 ± 0.23,4.23 ± 0.21,–,–
LPRSEDDDCDDDDDDAQILPSPVQ [DRICH1],5.5 ± 0.11,5.53 ± 0.27,–,–
LPSPVQACSEDSLFLRCSLRHKDE [DRICH1],4.31 ± 0.15,4.48 ± 0.2,–,–
LPVNSPMNKGDTEVMKCIVEVISD [CHGA],3.22 ± 0.2,3.27 ± 0.19,–,–
LPVPPTPGLLSLATTSASDSLKPE [TFE3],4.87 ± 0.26,5.04 ± 0.29,–,–
LPVRPQTNALIGGPMPMSMPNVMT [CLINT1],3.33 ± 0.11,3.38 ± 0.18,–,–
LQELLTHDTKDQSPSRAPGLRQRA [HMOX1],4.33 ± 0.26,4.62 ± 0.33,–,–
LQIASDSHQYDRIYCGAGVQKDHE [PCMTD1],4.24 ± 0.25,4.25 ± 0.28,–,–
LQLPQLSDLGLLRLCTWLLALSPD [FANCE],2.89 ± 0.6,2.37 ± 0.3,–,–
LQNFLLHGTKNVTNSSSLRLPRQN [WSB1],2.89 ± 0.16,3 ± 0.23,–,–
LQNTYMGYLDYRKKAIKDLGISPS [GLT8D2],2.64 ± 0.24,2.91 ± 0.16,–,–
LQRLDFSVRGYMMSKQRERQLRRR [RETREG3],3.88 ± 0.14,3.92 ± 0.28,–,–
LRETKRKYESVLQLGRALTAHLYS [ARFIP2],2.3 ± 0.5,2.15 ± 0.32,–,–
LRHKDEEEEDDDDIHITARIESDL [DRICH1],5.41 ± 0.12,5.37 ± 0.18,–,–
LRKSIFSESRKPTVSIMEPGETRR [TRIM29],3.66 ± 0.32,3.93 ± 0.58,–,–
LRNLSDAATKQEGMEGLLGTLVQL [CTNNB1],3.51 ± 0.16,3.03 ± 0.65,–,–
